Reference: patent US20030166873A1 (Genentech, published 2003)

B1: PlGF152 (expression plasmid of Park et al.) (ligand, UniProt P49763-3 19-170, looked up)
chain: LPAVPPQQWALSAGNGSSEVEVVPFQEVWGRSYCRALERLVDVVSEYPSEVEHMFSPSCVSLLRCTGCCGDENLHCVPVETANVTMQLLKIRSGDRPSYVELTFSQHVRCECRPLREKMKPERRRPKGRGKRRREKQRPTDCHLCGDAVPRR
modifications: 35S-labeled amino acids
notes: also called PIGF; placental growth factor
B2: human VEGF-related protein (VRP), expressed from cDNA clone VH1.4 (plasmid pRK.vh1.4.2) (ligand)
chain: GPREAPAAAAAFESGLDLSDAEPDAGEATAYASKDLEEQLRSVSSVDELMTVLYPEYWKMYKCQLRKGGWQHNREQANLNSRTEETIKFAAAHTNTEILKSIDNEWRKTQCMPREVCIDVGKEFGVATNTFFKPPCVSVYRCGGCCNSEGLQCMNTSTSYLSKTLFEITVPLSQGPKPVTISFANHTSCRCMSKLDVYRQVHSIIRRSLPATLPQCQAANKTCPTNYMWNNHICRCLAQEDFMFSSDAGDDSTDGFHDICGPNKELDEETCQCVCRAGLRPASCGPHKELDRNSCQCVCKNKLFPSQCGANREFDENTCQCVCKRTCPRNQPLNPGKCACECTESPQKCLLKGKKFHHQTCSCYRRPCTNRQKACEPGFSYSEEVCRCVPSYWKRPQMS
modifications: 35S-labeled amino acids in Example 4
notes: The cleavage site after amino acid 20 is predicted ('most likely'; cleavage after 15 or 16 is not excluded); Flt4/IgG precipitated bands of 53 kDa and 33 kDa, so the secreted protein may be further processed
B3: Labeled VEGF (ligand, UniProt P15692-4 27-191, looked up)
chain: APMAEGGGQNHHEVVKFMDVYQRSYCHPIETLVDIFQEYPDEIEYIFKPSCVPLMRCGGCCNDEGLECVPTEESNITMQIMRIKPHQGQHIGEMSFLQHNKCECRPKKDRARQENPCGPCSERRKHLFVQDPQTCKCSCKNTDSRCKARQLELNERTCRCDKPRR
modifications: labeled (label not stated)
B4: VEGF165 (expression plasmid of Houck et al.) (ligand, UniProt P15692-4 27-191, looked up)
chain: B3 chain
modifications: 35S-labeled amino acids in Example 4
notes: The background calls VEGF a homodimer
B5: Flt4/IgG (extracellular domain of the Flt4 receptor, amino acids 1-775, spliced to the Fc region of a human IgG heavy chain) (Fc fusion, UniProt P35916 25-775, looked up)
chain: YSMTPPTLNITEESHVIDTGDSLSISCRGQHPLEWAWPGAQEAPATGDKDSEDTGVVRDCEGTDARPYCKVLLLHEVHANDTGSYVCYYKYIKARIEGTTAASSYVFVRDFEQPFINKPDTLLVNRKDAMWVPCLVSIPGLNVTLRSQSSVLWPDGQEVVWDDRRGMLVSTPLLHDALYLQCETTWGDQDFLSNPFLVHITGNELYDIQLLPRKSLELLVGEKLVLNCTVWAEFNSGVTFDWDYPGKQAERGKWVPERRSQQTHTELSSILTIHNVSQHDLGSYVCKANNGIQRFRESTEVIVHENPFISVEWLKGPILEATAGDELVKLPVKLAAYPPPEFQWYKDGKALSGRHSPHALVLKEVTEASTGTYTLALWNSAAGLRRNISLELVVNVPPQIHEKEASSPSIYSRHSRQALTCTAYGVPLPLSIQWHWRPWTPCKMFAQRSLRRRQQQDLMPQCRDWRAVTTQDAVNPIESLDTWTEFVEGKNKTVSKLVIQNANVSAMYKCVVSNKVGQDERLIYFYVTTIPDGFTIESKPSEELLEGQPVLLSCQADSYKYEHLRWYRLNLSTLHDAHGNPLLLDCKNVHLFATPLAASLEEVAPGARHATLSLSIPRVAPEHEGHYVCEVQDRRSHDKHCHKKYLSVQALEAPRLTQNLTDLLVNVSDSLEMQCLVAGAHAPSIVWYKDERLLEEKSGVDLADSNQKLSIQRVREEDAGRYLCSVCNAKGCVNSSASVAVEGSEDKGSME
modifications: 125I-iodinated where used as the labeled form (Example 6)
notes: range 25-775; also called Flt4 receptor-IgG fusion; ^125I-Flt4/IgG; not shown: Fc region (CH2CH3, plasmid pBSSK-Fc) of a human IgG heavy chain
B6: VH1.4 gD fusion protein (herpes glycoprotein D sequence fused to the putative mature sequence of VRP, plasmid pRK.vh1.4.5) (ligand)
chain: KYALADASLKMADPNRFRGKDLPVLDQLLEGGAAHYALLPGPREAPAAAAAFESGLDLSDAEPDAGEATAYASKDLEEQLRSVSSVDELMTVLYPEYWKMYKCQLRKGGWQHNREQANLNSRTEETIKFAAAHTNTEILKSIDNEWRKTQCMPREVCIDVGKEFGVATNTFFKPPCVSVYRCGGCCNSEGLQCMNTSTSYLSKTLFEITVPLSQGPKPVTISFANHTSCRCMSKLDVYRQVHSIIRRSLPATLPQCQAANKTCPTNYMWNNHICRCLAQEDFMFSSDAGDDSTDGFHDICGPNKELDEETCQCVCRAGLRPASCGPHKELDRNSCQCVCKNKLFPSQCGANREFDENTCQCVCKRTCPRNQPLNPGKCACECTESPQKCLLKGKKFHHQTCSCYRRPCTNRQKACEPGFSYSEEVCRCVPSYWKRPQMS
notes: also called purified VRP; gD-VRP

Tests used:
Flk1/IgG = target: T1, Flk1/IgG (UniProt P35968 20-764, limits assumed); test: receptor IgG / protein A precipitation of 35S-labeled conditioned medium
T1 construct: Construct known only by citation

[1] = target: B5; test: as above
[2] = target: B5; test: receptor IgG / protein A precipitation of 35S-labeled COS7 conditioned medium
[3] = target: B5; test: binding of labeled VEGF to receptor IgG
[4] = target: B6; test: competition of ^125I-Flt4/IgG binding to gD-VRP on 5B6 beads by increasing unlabeled Flt4/IgG
[5] = target: putative membrane-bound VRP (putative membrane-bound ligand) on human glioma cell line G61; test: FACS, 70 nM receptor IgG on G61 cells, compared with Rse/IgG
[6] = target: B5; test: ^125I-Flt4/IgG binding to gD-VRP captured on 5B6 glass beads, filtration and counting

T1 sequence (P35968 20-764 limits assumed): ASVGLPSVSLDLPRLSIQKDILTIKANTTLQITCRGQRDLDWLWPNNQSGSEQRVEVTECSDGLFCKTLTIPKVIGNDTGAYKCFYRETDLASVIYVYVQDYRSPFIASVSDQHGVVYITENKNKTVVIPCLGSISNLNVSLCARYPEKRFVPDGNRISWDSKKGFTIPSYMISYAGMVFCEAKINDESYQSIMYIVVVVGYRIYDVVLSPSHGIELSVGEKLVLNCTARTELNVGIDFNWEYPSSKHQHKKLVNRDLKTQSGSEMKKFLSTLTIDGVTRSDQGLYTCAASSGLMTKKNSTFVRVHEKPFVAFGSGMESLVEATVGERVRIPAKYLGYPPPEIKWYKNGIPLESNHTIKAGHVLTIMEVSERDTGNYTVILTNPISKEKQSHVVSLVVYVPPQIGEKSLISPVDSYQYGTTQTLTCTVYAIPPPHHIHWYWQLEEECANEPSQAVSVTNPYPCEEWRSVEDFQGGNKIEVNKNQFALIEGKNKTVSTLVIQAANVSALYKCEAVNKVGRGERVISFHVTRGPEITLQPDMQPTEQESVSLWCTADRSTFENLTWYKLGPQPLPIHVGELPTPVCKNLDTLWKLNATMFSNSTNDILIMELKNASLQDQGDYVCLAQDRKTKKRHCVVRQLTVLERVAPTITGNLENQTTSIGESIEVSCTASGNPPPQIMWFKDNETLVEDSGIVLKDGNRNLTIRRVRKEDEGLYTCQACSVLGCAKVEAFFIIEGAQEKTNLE

B1: no binding (tested: 3 µg of receptor IgG) (Flk1/IgG); no binding (tested: 3 µg of receptor IgG) [1].

B2: binds [2].

B3: no binding [3].

B4: no binding (tested: 3 µg of receptor IgG) [1].

In the case of B5, the EC50 [4] is reported as about 0.7 nM and the “shift in peak fluorescence intensity” value [5] is reported as about 10 fold.

B6: binds [6].
